This test concerns the target recombinant Epithelial Glycoprotein-2 (EGP-2), baculovirus-expressed, purified (human) (UniProt P16422). Description: SPR (BIAcore), scFv over amine-coupled recombinant EGP-2. In general terms: In SPR one partner is held on a chip, and binding of the other changes the refractive index at the surface.
UniProt P16422, sequence (P16422 24-265 limits assumed): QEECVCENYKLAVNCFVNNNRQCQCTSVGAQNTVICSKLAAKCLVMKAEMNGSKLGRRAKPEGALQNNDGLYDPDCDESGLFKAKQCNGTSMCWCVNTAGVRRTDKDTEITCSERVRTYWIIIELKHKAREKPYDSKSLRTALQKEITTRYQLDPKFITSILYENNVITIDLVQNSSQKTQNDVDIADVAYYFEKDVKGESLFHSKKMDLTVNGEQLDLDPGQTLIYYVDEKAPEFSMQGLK

By koff is commonly meant a measure of how fast the partners let go of each other. For the substance scFv MOC-31, the koff was 0.00034 s⁻¹.
